Drawing on US12018066 (TRIAD NATIONAL SECURITY, dated 2024), this text covers binding result and Kd for 18 molecules.

Experiment [1] concerns the target T1, SARS-CoV spike protein receptor binding domain (RBD1) (SARS-CoV, UniProt P59594 306-527). Briefly: ELISA, crude rabbit minibody. On the technique in general: In an ELISA, binding on a coated surface is turned into a signal by an enzyme label.
Experiment [2] has as its target T2, SARS-CoV-2 spike protein receptor binding domain (RBD2) (SARS-CoV-2, UniProt P0DTC2 319-537). Briefly: flow cytometry, yeast-expressed scFv.
Experiment [3] addresses T2, SARS-CoV-2 spike protein receptor …. Briefly: flow cytometry, yeast-displayed scFv, titration of biotinylated antigen. (In general: In flow cytometry, cells or beads pass a laser one at a time.)
Experiment [4] has the same target.
The target is the same in experiment [5]. The source holds these as a separate data set.
Experiment [6] shares this target. Briefly: flow cytometry, yeast-displayed scFv.
The target of experiment [7] is T1, SARS-CoV spike protein receptor binding …. In words: plate immunoassay on immobilized antigen, PE-labelled anti-rabbit/anti-human.

Values joined by “and” are separate entries in the source; they are usually repeats but may differ in a detail not shown here. Equal values may be shown once. Read-outs that look alike come from different tables or passages of the source.

B1: H02 rabbit minibody (scFv-rabbit Fc) (Fc fusion)
scFv-Fc: QSVVTQPPSVSAAPGQKVTISCSGSSSNIGNNYVSWYQQLPGTAPKLLIYRDTQRPSGVPDRFSGSKSGTSASLAISGLRSEDEADYYCATWDKSLSGPVFGGGTKVTVLSGGSTITSYNVYYTKLSSSGTQVQLQQSGPGLVKPSQTLSLTCAISGDSVSSNSAAWNWIRQSPSRGLEWLGRTYYRSKWYNDYAVSVKSRIIINPDTSKNQFSLQLNSVTPEDTAVYYCARQDNNPYYGLDVWGQGTTVTVSS
As to B1, the binding result in experiment [1] is listed as “no binding”.

B2: R09 scFv (scFv)
scFv: QPGLTQPPSVSVSPGQTASITCSGDKLGYKYVSWYQQKPGQSPVLVIYEDTKRPSGIPKRFSGSNSGNTATLTICGTQAVDEADYYCQAWDSSVVFGGGTKLTVLSGGSTITSYNVYDTKLSSSGTQVQLVQSGAEVKKPGASVKVSCKASGYTFTSYGISWVRQAPGQGLEWMGWISAYNGNTNYAQKFQGRVTMTTDTSTSTAYMELRSLRSDDTAVYYCARDMELRPPFDYWGQGTLVTVSS
In general, Kd refers to the constant that tells how readily two partners part at equilibrium. A high value points to weaker binding. B2 gave a Kd in experiment [2] of 4820 nM.

B3: D04 scFv (scFv)
scFv: SYVLTQPPSVSVAPGKTARITCGGNNIGWKSVHWYQQKPGQAPVLVVYNDNDRPSGVPERFSGSNSGNTATLTISRVVAGDEADYYCQVWDSSSDHVLFGGGTKLTVLSGGSTITSYNVYYTKLSSSGTQVQLVQSGAEVKKPGSSVKVSCKASGGTFSSYAISWVRQAPGQGLEWMGGIIPIFGTANYAQKFQGRVTITADESTSTAYMELSSLRSEDTAVYYCARASGRWLQFWHYYGMDVWGQGTTVTVS
With B3, the Kd in experiment [3] and in experiment [4] was 33 nM throughout.

B4: E01 scFv (scFv)
scFv: SYELTQPPSVSVAPGETARITCGGDNIGRRHVHWYQQKPGQAPVLVIYDDSDRPSGIPDRFSGSNSGNTATLTIGRVEAGDEADYYCQVWGSSNDPHVFGTGTKLTVLSGGSTITSNNVYYTKLSSSGTQVQLQQWGAGLLKPSETLSLKCAVYGGSFSGYYWGWIRQSTGKGLEWIGEINRSGSTNYNPSLKSRVTISVDTSKNQFSLKLSSVTAADTAVYYCARGGARYYYGSGSYRSTPRPYYFDYWGQGTLVTVSS
notes: also called E1
Consider B4, for which the Kd came to 13.9 nM in experiment [3], 13.9 nM in experiment [5], 13.9 nM in experiment [6] and 16.1 nM in experiment [2].

B5: E01 rabbit minibody (scFv-rabbit Fc) (Fc fusion)
scFv-Fc: B4 scFv
Turning to B5, in experiment [7], the binding result is “no binding”.

B6: D07 scFv (scFv)
scFv: SYELTQPPSVSVAPGETARMTCGGNNIGTKGVHWYQQKPGQAPVLVVYDDSDRPSGIPERFSGSNAGNTATLTISRVEAGDEADYYCQVWDSRSDQYVFGTRTKLTVLSGGSTITSYNVYYTKLSSSGAQVTLKESGPVLVKPTETLTLTCTVSGFSLSNARMGVSWIRQPPGKALEWLAHIFSNGEKSYSTSLKSRLTISKDTSKSQVVLTMTNMDPVDTATYYCARTLDYYDSSGYLVGGAFDIWGQGTMVTVSS
On to B6, for which the dissociation constant Kd in experiment [3] was 113 nM; in experiment [2], 268 nM; in experiment [4], 113 nM and 138 nM.

B7: H05 rabbit minibody (scFv-rabbit Fc) (Fc fusion)
scFv-Fc: SYVLTQPPSVSVAPGQTARITCGANNIGRISVHWYQQKPGQAPVLVVYDDSDRPSGIPERFSGSNFGNTATLTISRVEAGDEADYYCQVWDSYSDHVIFGGGTKLTVLSGGSTITSYNVYYTKLSSSGTQVQLVQSGAEVKKPGSSVKVSCKASGGTFSSYAISWVRQAPGQGLEWMGGIIPIFGTANYAQKFQGRVTITADESTSTAYMELSSLRSEDTAVYYCARSIFGVVIISHADGYYYGMDVWGQGTTVTVSS
Consider B7, for which the binding result in experiment [1] is “no binding”.

B8: B04 scFv (scFv)
scFv: SYVLTQPPSVSVAPGKTARITCGGNNIGIRSVHWYQQKPGQAPVLVIYYDSDRPSGIPERFSGSKSGNTATLTISRVEAGDEADYYCQVWDSSSDHPVFGGGTKLTVLSGGSTITSYNVYYTKLSSSGTQVQLVESGAEVKKPGASVKVSCKASGYTFTRYYMHWVRQAPGQGLEWMGIINPSGGTTSYAQKFQGRVTMTRDTSTSTVYMELSSLRSEDTAVYYCARSFGELTSFDYWGQGTLVTVSS
As to B8, the equilibrium dissociation constant (Kd) in experiment [3], in experiment [6] and in experiment [4] was 13.9 nM throughout.

B9: G07 rabbit minibody (scFv-rabbit Fc) (Fc fusion)
scFv-Fc: QSVLIQPPSASGTPGQRVTISCSGSNSNFGSNSVSWYQQRPGTAPKLLIEGNNQRPSGVPERFSGSKSGTSASLAISGLQSEDEAEYSCASWDDSLNAFVFGPGTKLTVLSGGSAITSYNVYYTKLSSSGTQVQLVQSGAEVKKPGESLKISCKGSGYSFTSYWIGWVRQMPGKGLEWMGIIYPGDSDIRYSPSFQGQVTISADKSFSSAYLQWSSLKASDTAMYYCARLGATGAFDIWGQGTTVTVSS
Take B9: the binding result in experiment [1] is recorded as “no binding”.

B10: F07 scFv (scFv)
scFv: SYVLTQPPSVSVAPGQTARITCGGNNIGSKSVHWYQQKPGQAPVLVVYDDSDRPSGIPERFSGSNSGNTATLIISRVEAGDEADYYCQVWDSSSVHYVFGTGTKLTVLSGGSTITSYNVYYTKLSSSGTQVQLVQSGAEVKKPGSSVRVSCKVSGYTFTGYYMHWVRQAPGQGLEWMGIINPSGGSTSYAQKFQGRVTMTRDTSTSTVYMELSSLRSEDTAVYYCARVRVGASDAFDIWGQGTMVTVSS
With B10, the Kd in experiment [3] is 67.5 nM; in experiment [5], 67.5 nM; in experiment [6], 67.5 nM; in experiment [2], 280 nM.

B11: E07 scFv (scFv)
scFv: B10 scFv
For the molecule B11, the dissociation constant Kd in experiment [2] worked out at 436 nM.

B12: F07 human minibody (scFv-human Fc) (Fc fusion)
chain: B10 scFv
Regarding B12, the binding result in experiment [7] is on record as “no binding”.

B13: F07 rabbit minibody (scFv-rabbit Fc) (Fc fusion)
chain: B10 scFv
In the case of B13, the binding result in experiment [7] is listed as “no binding”.

B14: H03 rabbit minibody (scFv-rabbit Fc) (Fc fusion)
scFv-Fc: SYELTQPPSVSVAPGQTARITCGGNNIGSKSVHWYQQKPGQAPVLVIYYDSDRPSGIPERFSGSNSGNTATLTISRVEAGDEADYYCQVWDSSSALYVFGTRTKVTVLSGGSTITSYNVYYTKLSSSGTQVQLVESGGGLVQPGRSLRLSCAASGFTFDDYAMHWVRQAPGKGLEWVSGISWNSGSIGYADSVKGRFTISRDNAKNSLYLQVNSLRAEDTAVYYCARELIVGTTSPQTDAFDIWGQGTMVTVSS
In the case of B14, in experiment [1], the binding result is reported as “no binding”.

B15: D11 rabbit minibody (scFv-rabbit Fc) (Fc fusion)
scFv-Fc: SYELTQPPSVSVAPGQTARITCGGNNIGSKSVHWYQQKPGQAPVLVVYDDSDRPSGIPERFSGSNSGNTATLTISGTQAMDEADYYCQAWDSSTAYVFGSGTKLTVLSGGSTITSYNVYYTKLSSSGTQVQLEESGGGLVQPGGSLRLSCAASGFTFSNYAMSWVRQAPGKGLEWVSAISGSGGATFHADSVKGRFTISRDNSKNTLYLQMNSLRAEDTAVYYCARRVGYDSSGYYWSDAFDIWGQGTMVTVSS
For B15, the binding result in experiment [1] was “no binding”.

B16: R26 rabbit minibody (scFv-rabbit Fc) (Fc fusion)
scFv-Fc: SYELTQPPSVSVAPGQTATITCGGKNIESKSVHWYQQKPGQAPVLVVSDDTDRASGIPERFSGSNSGGAATLTISRVEAGDEADYYCQVWDSPSDHYVFGPGTKLTVLSGGSTITSYNVYYTKLSSSGTQVQLVESGGGVVQPGRSLRLSCAASGFTFSSYAMHWVRQAPGKGLEWVAVISYDGSNKYYADSVKGRFTISRDKAKNTLYLQMNSLRGEDTAVYYCARELSYYDSSGYLRGDWYFDLWGRGTLVTVSS
As for B16, the binding result in experiment [1] is recorded as “no binding”.

B17: S01 rabbit minibody (scFv-rabbit Fc) (Fc fusion)
chain: EIVMTQSPSSLSASVGDSVTITCQASQDISNYLNWYQQKPGKAPKLLIYDASNLETGVPSRFSGGGSGTDFTLTITSLQPEDIATYYCQQYDNFPPTFGPGTKVDIKSGGSTITSYNVYYTKLSSSDTQVQLVESGGGLVKPGGSLRLSCAASGFTVGSNYMSWVRQAPGKGLEWVSVIYSGGSTYYADSVKGRFTISRDNSKNTLYLQMNSLRAEDTAVYYCARGSSGAWYFDLWGRGTLVTVSS
For the molecule B17, the binding result in experiment [7] is “no binding”.

B18: S01 human minibody (scFv-human Fc) (Fc fusion)
chain: B17 chain
In the case of B18, the binding result in experiment [7] was “no binding”.
